Reference: patent US20190233494A1 (Sanofi, published 2019)
Starred links: 1 amine or outer side, 2 acyl side, 3 side chain; linkers in the order of their positions; H or OH if unused. Non-standard residues stand in square brackets, D forms with d. Groups on a side chain read outwards from the residue. *: point of attachment. TTDS = 4-[3-[2-[2-(3-aminopropoxy)ethoxy]ethoxy]propylamino]-4-oxo-butanoyl; Trp(5-Cl) = N[C@@H](Cc1c[nH]c2ccc(Cl)cc12)C(=O)O; Trp(5-F) = N[C@@H](Cc1c[nH]c2ccc(F)cc12)C(=O)O; Phe(4-F) = N[C@@H](Cc1ccc(F)cc1)C(=O)O; γGlu = O=C(O)[C@H](CCC(=O)[*:2])N[*:1]; Palmitoyl = CCCCCCCCCCCCCCCC(=O)*; αMeF = C[C@](N)(Cc1ccccc1)C(=O)O; Myristoyl = CCCCCCCCCCCCCC(=O)*; Cit = NC(=O)NCCC[C@H](N)C(=O)O; αMeK = C[C@](N)(CCCCN)C(=O)O; hLys = NCCCCC[C@H](N)C(=O)O; AEEA = NCCOCCOCC(=O)O; Aib = CC(C)(N)C(=O)O

T1: RXFP1 receptor (endogenous, on OVCAR5 cells) (UniProt Q9HBX9 1-757, limits assumed)
T1 sequence (looked up): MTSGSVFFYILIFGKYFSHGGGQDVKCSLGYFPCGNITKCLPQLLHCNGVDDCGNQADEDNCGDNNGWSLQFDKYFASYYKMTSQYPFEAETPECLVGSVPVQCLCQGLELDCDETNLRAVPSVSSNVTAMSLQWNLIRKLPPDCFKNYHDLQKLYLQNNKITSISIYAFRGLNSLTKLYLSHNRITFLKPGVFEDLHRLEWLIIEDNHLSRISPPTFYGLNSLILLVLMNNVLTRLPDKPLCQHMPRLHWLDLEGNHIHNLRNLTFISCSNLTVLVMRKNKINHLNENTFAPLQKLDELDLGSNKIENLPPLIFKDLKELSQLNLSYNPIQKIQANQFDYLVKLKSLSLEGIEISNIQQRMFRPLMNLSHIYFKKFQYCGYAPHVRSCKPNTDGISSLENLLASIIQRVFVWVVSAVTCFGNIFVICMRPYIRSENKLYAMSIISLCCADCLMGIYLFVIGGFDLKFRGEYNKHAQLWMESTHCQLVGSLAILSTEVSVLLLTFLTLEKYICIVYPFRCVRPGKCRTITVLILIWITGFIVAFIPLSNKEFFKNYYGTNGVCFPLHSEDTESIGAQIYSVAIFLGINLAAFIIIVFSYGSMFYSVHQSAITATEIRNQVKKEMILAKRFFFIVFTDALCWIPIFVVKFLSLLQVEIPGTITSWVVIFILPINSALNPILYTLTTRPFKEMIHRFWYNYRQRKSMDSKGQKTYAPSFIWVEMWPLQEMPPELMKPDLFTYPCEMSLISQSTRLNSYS

B1: peptide of SEQ ID NO: 8 (peptide)
peptide: Ac-LEGREKVRAK(Ac)I[Aib][Aib]EGK([AEEA-AEEA-AEEA-AEEA-γGlu-γGlu-γGlu-Palmitoyl])STFS[αMeK]RAK(Ac)-NH2
SMILES: CCCCCCCCCCCCCCCC(=O)N[C@@H](CCC(=O)N[C@@H](CCC(=O)N[C@@H](CCC(=O)NCCOCCOCC(=O)NCCOCCOCC(=O)NCCOCCOCC(=O)NCCOCCOCC(=O)NCCCC[C@H](NC(=O)CNC(=O)[C@H](CCC(=O)O)NC(=O)C(C)(C)NC(=O)C(C)(C)NC(=O)[C@@H](NC(=O)[C@H](CCCCNC(C)=O)NC(=O)[C@H](C)NC(=O)[C@H](CCCNC(=N)N)NC(=O)[C@@H](NC(=O)[C@H](CCCCN)NC(=O)[C@H](CCC(=O)O)NC(=O)[C@H](CCCNC(=N)N)NC(=O)CNC(=O)[C@H](CCC(=O)O)NC(=O)[C@H](CC(C)C)NC(C)=O)C(C)C)[C@@H](C)CC)C(=O)N[C@@H](CO)C(=O)N[C@H](C(=O)N[C@@H](Cc1ccccc1)C(=O)N[C@@H](CO)C(=O)N[C@@](C)(CCCCN)C(=O)N[C@@H](CCCNC(=N)N)C(=O)N[C@@H](C)C(=O)N[C@@H](CCCCNC(C)=O)C(N)=O)[C@@H](C)O)C(=O)O)C(=O)O)C(=O)O

Molecular target: T1, RXFP1 receptor (endogenous, on OVCAR5 …)
Assay: cell-based or functional assay

Binder	EC50 (nM), OVCAR 5 cells (cAMP)	EMax, OVCAR 5 cells (cAMP)
Ac-LEGREKVRAK(Ac)I[Aib][Aib]EGK([TTDS-TTDS-γGlu-γGlu-Palmitoyl])STFS[αMeK]RAK(Ac)-NH2 [peptide of SEQ ID NO: 9]	0.7 nM	93%
Ac-LEGREKVRA[Cit]I[Aib][Aib]EGK([TTDS-TTDS-TTDS-γGlu-γGlu-γGlu-Palmitoyl])STFS[αMeK]RAK(Ac)-NH2 [peptide of SEQ ID NO: 12]	0.93 nM	90%
Ac-K(Ac)EGREKVRAK(Ac)I[Aib][Aib]EGK([TTDS-TTDS-TTDS-γGlu-γGlu-γGlu-Palmitoyl])STFS[αMeK]RAK(Ac)-NH2 [peptide of SEQ ID NO: 81]	0.16 nM	98%
Ac-LEGREKVRAK(Ac)I[Aib][Aib]EGK([TTDS-TTDS-TTDS-γGlu-γGlu-γGlu-Myristoyl])STFS[αMeK]RAK-NH2 [peptide of SEQ ID NO: 96]	0.88 nM	92%
Ac-LEGREKVRAK(Ac)I[Aib][Aib]EGK([TTDS-TTDS-TTDS-γGlu-γGlu-γGlu-Palmitoyl])STFSRRAK(Ac)-NH2 [peptide of SEQ ID NO: 87]	0.1 nM	96%
Ac-LEGREKVRAK(Ac)I[Aib][Aib]EGK([TTDS-TTDS-TTDS-γGlu-γGlu-γGlu-Palmitoyl])STFS[hLys]RAK(Ac)-NH2 [peptide of SEQ ID NO: 88]	0.17 nM	96%
Ac-LEGRERVRAK(Ac)I[Aib][Aib]EGK([TTDS-TTDS-TTDS-γGlu-γGlu-γGlu-Palmitoyl])ST[Phe(4-F)]S[Aib]RRK(Ac)-NH2 [peptide of SEQ ID NO: 91]	0.09 nM	97%
Ac-LEGREKVR[Aib]K(Ac)I[Aib][Aib]EGK([TTDS-TTDS-TTDS-γGlu-γGlu-γGlu-Palmitoyl])STWS[Aib]RAK(Ac)-NH2 [peptide of SEQ ID NO: 82]	0.54 nM	95%
Ac-LEGREKVRAK(Ac)I[Aib][Aib]EGK([TTDS-TTDS-TTDS-γGlu-γGlu-γGlu-Palmitoyl])STF[dS]KRAK(Ac)-NH2 [peptide of SEQ ID NO: 14]	3.2 nM	90%
B1	1.86 nM	92%
Ac-LEGREKVRAK(Ac)I[Aib][Aib]EGK([TTDS-TTDS-TTDS-γGlu-γGlu-γGlu-γGlu-Myristoyl])STFS[αMeK]RAK-NH2 [peptide of SEQ ID NO: 97]	0.29 nM	98%
Ac-LEGRERVRAK(Ac)I[Aib][Aib]EGK([TTDS-TTDS-TTDS-γGlu-γGlu-γGlu-Palmitoyl])ST[Trp(5-F)]S[Aib]RRK(Ac)-NH2 [peptide of SEQ ID NO: 92]	0.1 nM	99%
Ac-LEGREKVRAK(Ac)I[Aib][Aib]EGK([TTDS-TTDS-TTDS-γGlu-γGlu-γGlu-Palmitoyl])STFTRRAK(Ac)-NH2 [peptide of SEQ ID NO: 93]	0.77 nM	86%
Ac-LEGREKVRAK(Ac)I[Aib][Aib]EGK([TTDS-TTDS-TTDS-γGlu-γGlu-γGlu-Palmitoyl])ST[αMeF]SRRAK(Ac)-NH2 [peptide of SEQ ID NO: 89]	0.1 nM	97%
Ac-LEGREKVRAK(Ac)I[Aib][Aib]EGK([TTDS-TTDS-TTDS-γGlu-γGlu-γGlu-Palmitoyl])SKWS[Aib]RKK(Ac)-NH2 [peptide of SEQ ID NO: 83]	0.25 nM	94%
Ac-[Aib]EGREKVRAK(Ac)I[Aib]IEGK([TTDS-TTDS-TTDS-γGlu-γGlu-γGlu-Palmitoyl])STFS[αMeK]RAK(Ac)-NH2 [peptide of SEQ ID NO: 86]	0.3 nM	95%
Ac-LEGREKVRAK(Ac)I[Aib][Aib]EGK([TTDS-TTDS-γGlu-γGlu-γGlu-γGlu-Palmitoyl])STFS[αMeK]RAK(Ac)-NH2 [peptide of SEQ ID NO: 10]	0.79 nM	95%
Ac-LEGREKVRAK(Ac)I[Aib]IEGK([TTDS-TTDS-TTDS-γGlu-γGlu-γGlu-Palmitoyl])STFS[αMeK]RAK(Ac)-NH2 [peptide of SEQ ID NO: 84]	0.1 nM	95%
Ac-LEGREKVRAK(Ac)I[Aib][Aib]EGK([TTDS-TTDS-TTDS-γGlu-γGlu-γGlu-Palmitoyl])STFSKRAK(Ac)-NH2 [peptide of SEQ ID NO: 13]	2.12 nM	91%
Ac-LEGREKVRAK(Ac)I[Aib][Aib]EGK([TTDS-TTDS-TTDS-γGlu-γGlu-γGlu-Myristoyl])STFS[αMeK]RAK(Ac)-NH2 [peptide of SEQ ID NO: 95]	1.8 nM	91%
Ac-LEGREKVRAK(Ac)IA[Aib]EGK([TTDS-TTDS-TTDS-γGlu-γGlu-γGlu-Palmitoyl])STFS[αMeK]RAK(Ac)-NH2 [peptide of SEQ ID NO: 90]	0.14 nM	97%
Ac-LEGREKVRAK(Ac)I[Aib][Aib]EGK([TTDS-TTDS-TTDS-γGlu-γGlu-γGlu-Palmitoyl])STFVRRAK(Ac)-NH2 [peptide of SEQ ID NO: 94]	1.74 nM	88%
Ac-LEGRERVR[Aib]K(Ac)I[Aib][Aib]EGK([TTDS-TTDS-TTDS-γGlu-γGlu-γGlu-Palmitoyl])STWS[Aib]RRK(Ac)-NH2 [peptide of SEQ ID NO: 85]	0.3 nM	92%
Ac-LEGREKVRAK(Ac)I[Aib][Aib]EGK([TTDS-TTDS-TTDS-γGlu-γGlu-γGlu-Palmitoyl])STWS[αMeK]RAK(Ac)-NH2 [peptide of SEQ ID NO: 11]	0.83 nM	93%
Ac-LEGRERVRAK(Ac)I[Aib][Aib]EGK([TTDS-TTDS-TTDS-γGlu-γGlu-γGlu-Palmitoyl])ST[Trp(5-Cl)]S[Aib]RRK(Ac)-NH2 [peptide of SEQ ID NO: 80]	0.63 nM	93%
